Results on one molecule are retold here after publication PMC6778148.

The target in the test is fluorescein-labelled divalent stargazin-derived peptide ligand. Kind of test: fluorescence polarisation; direct titration: 50 nM fluorescein-labelled stargazin ligand (divalent or monovalent) against increasing concentrations of PDZ domains; apparent KD.

B1: SAP102 tandem PDZ domains 1 and 2 (SAP102-12), from pET-NO (domain or fragment)
chain: FKYEEIVLERGNSGLGFSIAGGIDNPHVPDDPGIFITKIIPGGAAAMDGRLGVNDCVLRVNEVDVSEVVHSRAVEALKEAGPVVRLVVRRRQPPPETIMEVNLLKGPKGLGFSIAGGIGNQHIPGDNSIYITKIIEGGAAQKDGRLQIGDRLLAVNNTNLQDVRHEEAVASLKNTSDMVYLKVAKPGSL
With B1, the Kd was 175 nM.
